Experimental findings from article PMC9756947, “Structural basis of transcription regulation by CNC family transcription factor, Nrf2” (Nucleic Acids Research, 2022) are described below.

The target in series [1] is MafG (EMSA construct) (Homo sapiens, UniProt O15525). Description: EMSA; homodimer; 16 h; EMSA: 20 mM Tris-HCl pH 7.2, 150 mM KCl, 10 mM DTT, 8 mg/ml BSA, 0.005% Tween 20, 50 ng/ml poly(dI-dC), 2.5% Ficoll; probe ~1.6 pM; 16 h (30 min for Jun-Fos); competitive assay at 4 C; gel at 4 C. The following applies: protein: recombinant; tags: N-terminal His6, removed by HRV 3C (GPHM left); chain copies: 2; label: 32P 5' end; text says 30 bp). (In general: A gel shift assay detects complexes by their altered migration in electrophoresis.)

Series [2] addresses c-Jun fragment;c-Fos fragment (Homo sapiens;Homo sapiens, UniProt P05412;P01100 ;, |). Nature of the series: EMSA; heterodimer; 30 min; EMSA: 20 mM Tris-HCl pH 7.2, 150 mM KCl, 10 mM DTT, 8 mg/ml BSA, 0.005% Tween 20, 50 ng/ml poly(dI-dC), 2.5% Ficoll; probe ~1.6 pM; 16 h (30 min for Jun-Fos); competitive assay at 4 C; gel at 4 C. As to conditions: protein: recombinant;recombinant; tags: N-terminal His6;N-terminal His6; copies: 1;1; label: 32P 5' end; text says 30 bp).

In series [3] the target is T1, Nrf2 long fragment, wild type;MafG (EMSA construct) (Homo sapiens;Homo sapiens, UniProt Q16236;O15525 ;, |). Nature of the series: EMSA; Nrf2:MafG 3:1; MafG concentration taken as heterodimer; 16 h; EMSA: 20 mM Tris-HCl pH 7.2, 150 mM KCl, 10 mM DTT, 8 mg/ml BSA, 0.005% Tween 20, 50 ng/ml poly(dI-dC), 2.5% Ficoll; probe ~1.6 pM; 16 h (30 min for Jun-Fos); competitive assay at 4 C; gel at 4 C. As to conditions: protein: recombinant;recombinant; tags: N-terminal His6 (not removed);N-terminal His6, removed by HRV 3C (GPHM left); copies: 1;1; label: 32P 5' end; text says 30 bp).

The target of series [4] is T1, Nrf2 long fragment, wild type;MafG …. Description: EMSA (competitive, vs MafG homodimer); EC50 of Nrf2 at 1 nM MafG; 4 C, 16 h; EMSA: 20 mM Tris-HCl pH 7.2, 150 mM KCl, 10 mM DTT, 8 mg/ml BSA, 0.005% Tween 20, 50 ng/ml poly(dI-dC), 2.5% Ficoll; probe ~1.6 pM; 16 h (30 min for Jun-Fos); competitive assay at 4 C; gel at 4 C. The following applies: protein: recombinant;recombinant; tags: N-terminal His6 (not removed);N-terminal His6, removed by HRV 3C (GPHM left); copies: 1;1; label: 32P 5' end; text says 30 bp).

The target of series [5] is T2, human c-Fos fragment (residues 111–207) (human, UniProt P01100 111-207).
T2 construct: human c-Fos, residues 111-207; The tag is cleavable with HRV 3C protease, but no removal is described; source: E. coli BL21(DE3)-RIL, precipitate solubilized in 6 M guanidine-HCl, purified (HisTrap HP), dialyzed
T2 sequence (P01100 111-207): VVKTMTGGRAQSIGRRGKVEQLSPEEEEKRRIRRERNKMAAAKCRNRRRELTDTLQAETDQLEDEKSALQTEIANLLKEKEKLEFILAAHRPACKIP
Description: native gel or EMSA; EMSA to determine KD for DNA: dimers mixed with 32P-end labeled CsMBE DNA probe (about 1.6 pM) in 20 mM Tris–HCl pH 7.2, 150 mM KCl, 10 mM DTT, BSA, Tween 20, Poly(dI-dC), Ficol; 30 min (Jun–Fos) or 16 h (Nrf2–MafG, MafG homodimer); Nrf2 and MafG mixed at 3:1; complexes seen on DNA. The following applies: both partners purified.

Series [6] deals with T3, Nrf2 DNA-binding domain (CNC-bZIP);MafG (crystal construct) (Homo sapiens;Homo sapiens, UniProt Q16236;O15525 ;, |). Nature of the series: X-ray crystallography; 2.3 A; EMSA: 20 mM Tris-HCl pH 7.2, 150 mM KCl, 10 mM DTT, 8 mg/ml BSA, 0.005% Tween 20, 50 ng/ml poly(dI-dC), 2.5% Ficoll; probe ~1.6 pM; 16 h (30 min for Jun-Fos); competitive assay at 4 C; gel at 4 C. The following applies: protein: recombinant;recombinant; tags: N-terminal His6, removed by HRV 3C (GPHM left);none; copies: 1;1; 1-nt 5' overhang on each strand (15 bp).

Series [7] concerns the target T4, human Nrf2 fragment (residues 452–560) (human, UniProt Q16236 452-560).
T4 construct: His6 tag removed with HRV 3C protease; also called NFE2L2; Nuclear factor erythroid 2-like factor; source: E. coli BL21 (DE3), purified (phosphocellulose P11, HisTrap HP, HiTrap SP, Superdex 75); not shown: His6, N-terminal, cleaved
T4 sequence (looked up): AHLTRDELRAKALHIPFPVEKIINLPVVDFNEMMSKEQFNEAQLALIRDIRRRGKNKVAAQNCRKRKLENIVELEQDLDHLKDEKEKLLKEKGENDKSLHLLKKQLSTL
Description: crystal structure; Nrf2, MafG and DNA (CsMBE1 or CsMBE2) mixed at a molar ratio of 1:1:1, 10 mg/ml in 33 mM DTT; two Nrf2–MafG–DNA complexes in the asymmetric unit. The following applies: both partners purified.

Series [8] addresses T5, longer human Nrf2 fragment (residues 182–560) (human, UniProt Q16236 182-560).
T5 construct: human Nrf2 (NFE2L2), residues 182-560; Used for EMSA; also called Nrf2 (182–560); wild-type Nrf2; not shown: His6, N-terminal, kept
T5 sequence (looked up): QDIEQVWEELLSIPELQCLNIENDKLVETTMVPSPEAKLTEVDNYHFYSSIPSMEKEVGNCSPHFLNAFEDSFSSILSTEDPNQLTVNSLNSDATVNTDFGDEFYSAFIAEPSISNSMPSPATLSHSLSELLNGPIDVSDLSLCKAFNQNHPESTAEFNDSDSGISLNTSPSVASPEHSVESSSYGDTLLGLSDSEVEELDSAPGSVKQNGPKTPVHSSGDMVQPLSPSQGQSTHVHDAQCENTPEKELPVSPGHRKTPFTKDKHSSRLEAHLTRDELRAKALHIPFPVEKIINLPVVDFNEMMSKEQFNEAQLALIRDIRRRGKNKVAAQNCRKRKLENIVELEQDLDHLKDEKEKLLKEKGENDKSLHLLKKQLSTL
Nature of the series: native gel or EMSA; EMSA to determine KD for DNA: dimers mixed with 32P-end labeled CsMBE DNA probe (about 1.6 pM) in 20 mM Tris–HCl pH 7.2, 150 mM KCl, 10 mM DTT, BSA, Tween 20, Poly(dI-dC), Ficol; 30 min (Jun–Fos) or 16 h (Nrf2–MafG, MafG homodimer); Nrf2 and MafG mixed at 3:1; complexes seen on DNA. The following applies: both partners purified.

Series [9] deals with the molecule itself. The description is as above.
Series [10] addresses T3, Nrf2 DNA-binding domain (CNC-bZIP);MafG …. Nature of the series: X-ray crystallography; 2.6 A; EMSA: 20 mM Tris-HCl pH 7.2, 150 mM KCl, 10 mM DTT, 8 mg/ml BSA, 0.005% Tween 20, 50 ng/ml poly(dI-dC), 2.5% Ficoll; probe ~1.6 pM; 16 h (30 min for Jun-Fos); competitive assay at 4 C; gel at 4 C. As to conditions: protein: recombinant;recombinant; tags: N-terminal His6, removed by HRV 3C (GPHM left);none; copies: 1;1; 1-nt 5' overhang on each strand (15 bp).

Sequence of c-Jun fragment;c-Fos fragment (P05412 other isoform, or with tags, fused parts or gaps |, chain 1 of 2): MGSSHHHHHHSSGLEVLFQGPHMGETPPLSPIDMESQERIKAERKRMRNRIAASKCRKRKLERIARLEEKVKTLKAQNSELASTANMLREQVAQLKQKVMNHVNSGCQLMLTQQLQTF
Sequence of c-Jun fragment;c-Fos fragment (P01100 other isoform, or with tags, fused parts or gaps |, chain 2 of 2): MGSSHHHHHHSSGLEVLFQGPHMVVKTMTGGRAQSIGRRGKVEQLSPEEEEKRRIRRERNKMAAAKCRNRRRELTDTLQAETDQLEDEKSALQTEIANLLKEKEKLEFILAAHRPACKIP

B1: EMSA CsMBE probe (dsDNA)
DNA 1: CCGCAGTCACAGTGACTCAGCAGAATCTGA
DNA 2: CTCAGATTCTGCTGAGTCACTGTGACTGCG
The term Kd denotes the constant that tells how readily two partners part at equilibrium. Consider B1, for which the dissociation constant (Kd) came out at 0.69 nM in series [1], 129 nM in series [2] and 0.53 nM in series [3]. The “apparent K (half saturation)” value in [4] worked out at 2.1 nM.

B2: human c-Jun fragment (residues 237–331) (domain or fragment, UniProt P05412 237-331, looked up)
chain: GETPPLSPIDMESQERIKAERKRMRNRIAASKCRKRKLERIARLEEKVKTLKAQNSELASTANMLREQVAQLKQKVMNHVNSGCQLMLTQQLQTF
notes: human c-Jun, residues 237-331; source: E. coli, expressed and purified similarly to the c-Fos fragment
As to B2, the binding result in series [5] is reported as “binds”.

B3: CsMBE1 (dsDNA)
DNA 1: CATGATGAGTCAGCAA
DNA 2: GTTGCTGACTCATCAT
As to B3, the binding result in series [6] is given as “binds”.

B4: human MafG (residues 21–123, without any tag) (domain or fragment, UniProt O15525 21-123, looked up)
chain: GTSLTDEELVTMSVRELNQHLRGLSKEEIVQLKQRRRTLKNRGYAASCRVKRVTQKEELEKQKAELQQEVEKLASENASMKLELDALRSKYEALQTFARTVAR
notes: human MafG, residues 21-123: EHR, basic region and leucine zipper; Construct used for crystallization; source: E. coli BL21 (DE3), pAR2156-MafG, plating method, purified (HiTrap Heparin, Superdex 75)
In the case of B4, the binding result in series [7] is on record as “binds”.

B5: human MafG fragment (residues 21–123), His6 tag removed (domain or fragment, UniProt O15525 21-123, looked up)
chain: GTSLTDEELVTMSVRELNQHLRGLSKEEIVQLKQRRRTLKNRGYAASCRVKRVTQKEELEKQKAELQQEVEKLASENASMKLELDALRSKYEALQTFARTVAR
notes: human MafG, residues 21-123; Construct used for EMSA; also called MafG (21–123); source: E. coli BL21(DE3)-RIL, purified (phosphocellulose P11, HisTrap HP, Superdex 75); not shown: His6, N-terminal, cleaved
B5: the binding result in series [8] and in [9] was “binds” in each case.

B6: CsMBE2 (dsDNA)
DNA 1: CACAGTGACTCAGCAG
DNA 2: GCTGCTGAGTCACTGT
As to B6, the binding result in series [10] is listed as “binds”.
